Results: patent publication US20230242658A1 (published 2023)
Positions count from the first letter of the chain named. Values belong to the binder of their own block, whether it stands above or below them.

Tests used:
[1] = molecular target: T1, human 4-1BB on CHO-K1 cells (human, UniProt Q07011 24-255); assay: FACS
Target sequence in this assay (Q07011 24-255): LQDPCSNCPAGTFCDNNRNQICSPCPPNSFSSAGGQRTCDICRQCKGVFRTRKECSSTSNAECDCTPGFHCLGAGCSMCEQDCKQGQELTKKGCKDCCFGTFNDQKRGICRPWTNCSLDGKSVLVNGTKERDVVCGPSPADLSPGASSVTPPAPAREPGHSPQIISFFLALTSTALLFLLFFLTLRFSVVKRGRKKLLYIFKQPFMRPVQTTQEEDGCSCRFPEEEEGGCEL

[2] = molecular target: T1, human 4-1BB on CHO-K1 cells; assay: FACS; FIG. 11K
Target sequence in this assay (Q07011 24-255): as above

[3] = molecular target: T1, human 4-1BB on CHO-K1 cells; assay: FACS; FIG. 11L
Target sequence in this assay (Q07011 24-255): as above

[4] = molecular target: T1, human 4-1BB on CHO-K1 cells; assay: FACS; FIG. 11M
Target sequence in this assay (Q07011 24-255): as above

[5] = molecular target: T1, human 4-1BB on CHO-K1 cells; assay: FACS; FIG. 11E
[6] = molecular target: T1, human 4-1BB on CHO-K1 cells; assay: FACS; FIG. 11F
[7] = molecular target: T1, human 4-1BB on CHO-K1 cells; assay: FACS; FIG. 11G
[8] = molecular target: T1, human 4-1BB on CHO-K1 cells; assay: FACS; FIG. 11B
[9] = molecular target: T1, human 4-1BB on CHO-K1 cells; assay: FACS; FIG. 11C
[10] = molecular target: T1, human 4-1BB on CHO-K1 cells; assay: FACS; FIG. 11D
[11] = molecular target: T1, human 4-1BB on CHO-K1 cells; assay: FACS blocking of 4-1BBL; FIG. 14C
[12] = molecular target: T1, human 4-1BB on CHO-K1 cells; assay: FACS blocking of 4-1BBL; FIG. 14D
[13] = molecular target: T1, human 4-1BB on CHO-K1 cells; assay: FACS blocking of 4-1BBL; FIG. 14A
[14] = molecular target: T1, human 4-1BB on CHO-K1 cells; assay: FACS blocking of 4-1BBL; FIG. 14B
[15] = molecular target: T2, cynomolgus monkey 4-1BB on CHO-K1 cells (cynomolgus monkey); assay: FACS; FIG. 12I
T2 chain: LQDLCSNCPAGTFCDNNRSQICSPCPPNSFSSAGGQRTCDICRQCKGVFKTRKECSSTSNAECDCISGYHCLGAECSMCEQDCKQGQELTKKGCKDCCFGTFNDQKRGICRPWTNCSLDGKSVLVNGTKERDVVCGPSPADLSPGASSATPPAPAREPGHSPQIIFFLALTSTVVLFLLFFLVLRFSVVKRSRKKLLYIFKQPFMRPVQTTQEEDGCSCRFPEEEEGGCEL

[16] = molecular target: T1, human 4-1BB on CHO-K1 cells; assay: FACS; FIG. 11J
[17] = molecular target: T1, human 4-1BB on CHO-K1 cells; assay: FACS blocking of 4-1BBL; FIG. 14H
[18] = molecular target: T2, cynomolgus monkey 4-1BB on CHO-K1 cells; assay: FACS; FIG. 12G
[19] = molecular target: T1, human 4-1BB on CHO-K1 cells; assay: FACS; FIG. 11H
[20] = molecular target: T1, human 4-1BB on CHO-K1 cells; assay: FACS; remark: listed apart in the source
Target sequence in this assay (Q07011 24-255): as the sequence (Q07011 24-255) above

[21] = molecular target: T2, cynomolgus monkey 4-1BB on CHO-K1 cells; assay: FACS; FIG. 12F
[22] = molecular target: T1, human 4-1BB on CHO-K1 cells; assay: FACS blocking of 4-1BBL; FIG. 14F
[23] = molecular target: T1, human 4-1BB on CHO-K1 cells; assay: FACS blocking of 4-1BBL binding
[24] = molecular target: T2, cynomolgus monkey 4-1BB on CHO-K1 cells; assay: FACS
[25] = molecular target: T2, cynomolgus monkey 4-1BB on CHO-K1 cells; assay: FACS
[26] = molecular target: T2, cynomolgus monkey 4-1BB on CHO-K1 cells; assay: FACS; FIG. 12J
[27] = molecular target: T2, cynomolgus monkey 4-1BB on CHO-K1 cells; assay: FACS; FIG. 12K
[28] = molecular target: T2, cynomolgus monkey 4-1BB on CHO-K1 cells; assay: FACS; FIG. 12L
[29] = molecular target: T2, cynomolgus monkey 4-1BB on CHO-K1 cells; assay: FACS; FIG. 12A
[30] = molecular target: T2, cynomolgus monkey 4-1BB on CHO-K1 cells; assay: FACS; FIG. 12B
[31] = molecular target: T2, cynomolgus monkey 4-1BB on CHO-K1 cells; assay: FACS; FIG. 12C
[32] = molecular target: T2, cynomolgus monkey 4-1BB on CHO-K1 cells; assay: FACS; FIG. 12H
[33] = molecular target: T2, cynomolgus monkey 4-1BB on CHO-K1 cells; assay: FACS; FIG. 12D
[34] = molecular target: T2, cynomolgus monkey 4-1BB on CHO-K1 cells; assay: FACS; FIG. 12E
[35] = molecular target: T2, cynomolgus monkey 4-1BB on CHO-K1 cells; assay: FACS; FIG. 21A
[36] = molecular target: T2, cynomolgus monkey 4-1BB on CHO-K1 cells; assay: FACS; FIG. 21B
[37] = molecular target: T3, human PD-L1 on CHO-K1 cells (human, UniProt Q9NZQ7 19-290); assay: FACS; MDA-MB-231 cells; FIG. 24C
T3 sequence (Q9NZQ7 19-290): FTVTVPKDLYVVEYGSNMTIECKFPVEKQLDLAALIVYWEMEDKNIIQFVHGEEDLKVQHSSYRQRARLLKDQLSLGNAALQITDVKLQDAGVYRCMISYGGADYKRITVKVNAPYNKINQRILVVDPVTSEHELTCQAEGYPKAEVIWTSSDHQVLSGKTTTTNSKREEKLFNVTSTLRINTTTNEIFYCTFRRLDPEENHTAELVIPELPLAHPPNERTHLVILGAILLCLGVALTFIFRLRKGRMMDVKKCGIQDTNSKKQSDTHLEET

[38] = molecular target: T3, human PD-L1 on CHO-K1 cells; assay: FACS; MDA-MB-231 cells; FIG. 24D
[39] = molecular target: T3, human PD-L1 on CHO-K1 cells; assay: FACS; MDA-MB-231 cells; FIG. 24E

B5: PR004469 (antibody, V domains shown)
VH: EVQLLESGGGLVQPGGSLRLSCAASGFTFSNYAMSWFRQPPETGLKWVSSIDASGGDTYYADSVKGRFTISRDNSKNTLYLQMNSLRAEDTAVYYCAKEGSHGTDDSHYDVDVWGQGTTVTVSS
EC50 [18]: 568 pM
EC50 [19]: 1300 pM

B6: PR001838 (antibody, V domains shown)
VH: B5 VH with A53G
EC50 [20]: 248 pM
EC50 [18]: 329 pM
EC50 [21]: 1090 pM
EC50 [19]: 851 pM
IC50 [22]: 1610 pM

B7: PR000448 (antibody, V domains shown)
VH: QVQLQQWGAGLLKPSETLSLTCAVYGGSFSGYYWSWIRQPPGKGLEWIGEIQHSGSTDSNPSLKGRVTFSVDTSKNQFSLKLNSVTAADTAVYYCARLTGPFDYWGQGTLVTVSS
VL: EIVMTQSPATLSVSPGERATLSCRASQSISSILAWYQQKPGQAPRLLIYGASTRATGIPARFSGSGSGTEFTLTISSLQSEDFAVYYCQQYYNWPLTFGGGTKVEIKR
EC50 [23]: 2050 pM

B9: PR000265 (antibody, V domains shown)
VH: EVQLVESGGGLVQPGGSLRLSCAASGFTFSSYWMSWVRQAPGKGLEWVANIKQEGSEKYYVDSVKGRFTISRDNAKNSLYLQMNSLRAEDTAVYYCARDRAVAGAFDIWGQGTMVTVSS
VL: DIQMTQSPSTLSASVGDRVTVTCRASQSIYIWLAWYQQKPGKAPNLLIYKASSLETGVPSRFSGSGSGTEFTLTISSLQPDDFATYYCQQYYGSSRTFGQGTKVEIKR
EC50 [37]: 110 pM
EC50 [38]: 233 pM
EC50 [39]: 233 pM

The next lines start with the values.

EC50 [1]: 222 pM
EC50 [2]: 583 pM
EC50 [3]: 565 pM
EC50 [4]: 550 pM
EC50 [5]: 222 pM
EC50 [6]: 222 pM
EC50 [7]: 222 pM
EC50 [8]: 222 pM
EC50 [9]: 222 pM
EC50 [10]: 222 pM
IC50 [11]: 2410 pM
IC50 [12]: 2370 pM
IC50 [13]: ~2530 pM
IC50 [14]: 1500 pM
B1: Urelumab (antibody, V domains shown)
VH: QVQLQQWGAGLLKPSETLSLTCAVYGGSFSGYYWSWIRQSPEKGLEWIGEINHGGYVTYNPSLESRVTISVDTSKNQFSLKLSSVTAADTAVYYCARDYGPGNYDWYFDLWGRGTLVTVSS
VL: EIVLTQSPATLSLSPGERATLSCRASQSVSSYLAWYQQKPGQAPRLLIYDASNRATGIPARFSGSGSGTDFTLTISSLEPEDFAVYYCQQRSNWPPALTFGGGTKVEIKR

EC50 [15]: 1950 pM
EC50 [16]: 2470 pM
IC50 [17]: 3280 pM
B2: PR007291 (antibody, V domains shown)
VH: EVQLVESGGGLVKPGGSLRLSCVTSGFTFSDYYMNWIRQAPGKGQEWVSYISGNGSTIYYADSVKGRFTISRDNAKNSLYLQMNSLRAEDTAVYYCARVRPGGSGNYWDWFDPWGQGTPVTVSS

EC50 [15]: 2500 pM
EC50 [16]: 2020 pM
IC50 [17]: 5110 pM
B3: PR007290 (antibody, V domains shown)
VH: EVQLVESGGGVVQPGRSLRLSCAASGFTFSDYYMSWFRQAPGKGLEWVSYISSSGTTIDYADSVKGRFTISRDNAKNSLYLQMNSLRAEDTAVYYCAREREEVAGTLDFDYWGQGTPVTVSS

EC50 [15]: 4100 pM
EC50 [16]: 2490 pM
IC50 [17]: 11000 pM
B4: PR007289 (antibody, V domains shown)
VH: B3 VH with V11L, Q13K, R16G, T56S, I58Q, E102P, Y111N

EC50 [24]: 347 pM
EC50 [25]: 337 pM
EC50 [26]: 435 pM
EC50 [27]: 503 pM
EC50 [28]: 425 pM
EC50 [29]: 3460 pM
EC50 [30]: 3460 pM
EC50 [31]: 3460 pM
EC50 [32]: 393 pM
EC50 [15]: 378 pM
EC50 [33]: 3460 pM
EC50 [34]: 3460 pM
EC50 [21]: 3460 pM
EC50 [35]: 1340 pM
EC50 [36]: 984 pM
B8: Utomilumab (antibody, V domains shown)
VH: EVQLVQSGAEVKKPGESLRISCKGSGYSFSTYWISWVRQMPGKGLEWMGKIYPGDSYTNYSPSFQGQVTISADKSISTAYLQWSSLKASDTAMYYCARGYGIFDYWGQGTLVTVSS
VL: SYELTQPPSVSVSPGQTASITCSGDNIGDQYAHWYQQKPGQSPVLVIYQDKNRPSGIPERFSGSNSGNTATLTISGTQAMDEADYYCATYTGFGSLAVFGGGTKLTVLG
